± gives the uncertainty stated by the source.
B1: E3 ubiquitin-protein ligase NEDD4, residues 836 to 881; numbered along this chain, P46934 (parent)
chain: EIEQGFLPKGWEVRHAPNGRPFFIDHNTKTTTWEDPRLKIPAHLRG

Variants of: B1
Assay: abundance fitness (aPCA) (normalised: wild type 0, dead -1); higher = more abundant; growth selection in yeast, the domain comes from the species named
Details: Homo sapiens

Abundance fitness, by site and new letter:
N18: W -0.664 ± 0.054; A -0.69 ± 0.091; M -0.907 ± 0.065; E -0.232 ± 0.064; V -0.83 ± 0.076; S -0.241 ± 0.051; I -0.976 ± 0.24; R -0.805 ± 0.11; F -0.75 ± 0.1; K -0.652 ± 0.15; G -0.063 ± 0.034; T -0.29 ± 0.033; H -0.718 ± 0.097; L -0.696 ± 0.087; P -0.255 ± 0.13; C -0.256 ± 0.093; Q -1.06 ± 0.34
K9: C -0.268 ± 0.087; T -0.237 ± 0.091; Q -0.078 ± 0.047; M -0.344 ± 0.06; H -0.251 ± 0.11; A -0.124 ± 0.035; W -0.52 ± 0.047; R -0.205 ± 0.056; P -0.211 ± 0.066; E -0.119 ± 0.037; S -0.048 ± 0.04; L -0.257 ± 0.034; G -0.252 ± 0.042; Y -0.316 ± 0.037; F -0.825 ± 0.29; N -0.112 ± 0.038
P8: D -0.626 ± 0.088; C -0.969 ± 0.3; K 0.223 ± 0.15; T -0.432 ± 0.12; A -0.766 ± 0.26; L -0.988 ± 0.23; E -0.594 ± 0.18; F -0.341 ± 0.38; Q -0.814 ± 0.25; N -0.611 ± 0.063; W -0.856 ± 0.15; G -0.625 ± 0.067; H 0.162 ± 0.13; V -0.96 ± 0.16; M -0.692 ± 0.3; I -0.623 ± 0.23; R -0.648 ± 0.057
F6: A 0.155 ± 0.034; C 0.265 ± 0.06; K 0.117 ± 0.052; Q -0.297 ± 0.093; D 0.241 ± 0.049; M -0.345 ± 0.061; T 0.202 ± 0.039; I 0.372 ± 0.058; P 0.001 ± 0.07; R 0.149 ± 0.037; W -0.063 ± 0.058; H 0.05 ± 0.058; V 0.038 ± 0.044; Y 0.018 ± 0.035; S 0.16 ± 0.032; G 0.09 ± 0.04; L 0.051 ± 0.031
A16: R -0.668 ± 0.099; M -0.216 ± 0.11; K -0.698 ± 0.23; V -0.505 ± 0.066; G -0.108 ± 0.05; Q -0.353 ± 0.069; I -0.193 ± 0.23; P -0.416 ± 0.14; E -0.387 ± 0.064; C -0.11 ± 0.081; L -0.345 ± 0.1; N -0.435 ± 0.22; Y -0.657 ± 0.2; T 0.127 ± 0.079
I2: V -0.334 ± 0.064; T -0.214 ± 0.099; S -0.166 ± 0.067; D 0.035 ± 0.089; K -0.012 ± 0.082; L 0.11 ± 0.064; A -0.152 ± 0.05; Y -0.326 ± 0.14; M -0.044 ± 0.074; Q 0.178 ± 0.11; W -0.271 ± 0.1; E -0.037 ± 0.094; R -0.141 ± 0.031; H -0.326 ± 0.16; F -0.129 ± 0.095; P -0.953 ± 0.16; C -0.217 ± 0.094
E1: R -0.07 ± 0.2; Y 0.202 ± 0.45; K -0.095 ± 0.48; D -0.219 ± 0.14; G -0.27 ± 0.046; N 0.381 ± 0.29; V -0.153 ± 0.076; T 0.091 ± 0.12; A -0.259 ± 0.12
G10: I -1.17 ± 0.28; H -0.493 ± 0.13; D -0.81 ± 0.11; M -0.854 ± 0.16; V -0.816 ± 0.1; E -0.605 ± 0.11; C -0.722 ± 0.059; K -0.886 ± 0.19; F -0.6 ± 0.14; P -0.829 ± 0.2; N -0.12 ± 0.062; Y -0.781 ± 0.041; R -0.627 ± 0.055; W -0.802 ± 0.061; S -0.831 ± 0.081; L -0.95 ± 0.12; T -1 ± 0.2
E12: S -0.278 ± 0.05; K -0.599 ± 0.058; P -0.967 ± 0.096; H -0.227 ± 0.11; A -0.533 ± 0.066; F -0.352 ± 0.11; V -0.526 ± 0.052; R -0.793 ± 0.067; M -0.89 ± 0.14; W -0.692 ± 0.13; C -0.758 ± 0.063; Q -0.307 ± 0.077; T -0.274 ± 0.059; N -0.949 ± 0.17; L -0.942 ± 0.094; G -0.882 ± 0.11; I -0.633 ± 0.099
G5: F -0.158 ± 0.064; K 0.015 ± 0.042; H -0.313 ± 0.095; Y 0.008 ± 0.056; R -0.123 ± 0.037; A -0.064 ± 0.054; E -0.141 ± 0.076; Q -0.299 ± 0.089; M -0.175 ± 0.066; W -0.105 ± 0.057; L -0.217 ± 0.044; I -0.219 ± 0.052; P -0.26 ± 0.055; N 0.031 ± 0.05; S -0.068 ± 0.042; V -0.171 ± 0.053; C -0.21 ± 0.043
Q4: H -0.172 ± 0.059; R -0.002 ± 0.042; L -0.062 ± 0.051; K 0.127 ± 0.067; N -0.092 ± 0.059; Y -0.016 ± 0.083; S -0.024 ± 0.043; W -0.298 ± 0.078; P -0.116 ± 0.042
